The supplement of paper PMC10567573

B1: C1orf55 (parent)
chain: FTSPDYQQQCHEMAERLEDSVLKG
B2: HSP90AB1 (parent)
chain: QVANSAFVERVRKRGFEVVYMTEP

Variants of: B1
Test: protein stability index of a GFP-peptide fusion (GPS, HEK-293T) (PSI 1-6); higher = more stable
Details: c terminus: a fixed tail appended
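Also: lentivirally expressed fusions sorted by FACS into six bins by GFP to DsRed ratio, PSI derived from sequencing read proportions per bin multiplied by bin number.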

Protein stability index: each site, then its substitutions
E18: I 1.52; G 2.23; Y 1.79; V 1.4; C 1.99; L 1.76
G24: N 2.15; W 1.78; T 2.26; H 1.52; I 1.5; K 2.49
A14: P 2.48; R 2.27; K 2.52; Q 2.45; F 2.21; D 2.86
M13: C 1.97; T 2.1; S 2.53; L 2.25; P 2.83; Q 2.24; F 1.85; A 2.03
E12: L 2.7; D 2.56; C 1.93; F 3.35; W 1.85; N 1.7
C10: R 3.69; E 4.53; P 3.87; S 2.87; K 3.46
L22: T 2.22; Q 2.79; I 2.36; D 2.48; R 2.71; P 2.97
H11: P 2.66; I 2.61; T 2.1; G 2.35; E 2.95; V 2.52; Y 1.87
L17: S 2.47; D 3.18; I 2.12; T 2.9; H 2.52; Y 2.22; E 2.97; M 1.92
S20: G 1.72; E 2.67; L 2.93; K 1.75; D 2.3; I 2.26; F 1.85; W 2.08
Q9: G 1.92; D 3.87; S 1.94; V 2.21; A 1.95; E 3.26; C 1.84
R16: G 2.49; L 1.77; I 2.94; Y 2.04
D5: Q 2.29; W 2.62; A 2.15; R 2.03; M 2.12; Y 2.28; E 2.41; S 1.81; H 2.03; G 1.8
K23: T 2.13; M 2.02; S 2.24; C 1.79; V 3.3; G 2.38; R 2.57
Q7: I 1.81; N 3.16; Y 3.06; P 2.27; K 2.07; G 2.05; S 2.24; C 1.68; E 3.92
T2: K 3.92; H 2.25
E15: G 2.25; H 2.34; N 1.36; C 1.96; L 1.57; D 1.82; T 2.62; V 2.42; W 1.11; A 2.8; K 1.59
Q8: I 1.63; R 1.72; N 2.62; M 1.59; C 1.64; H 2.35; P 4.29; L 1.68
P4: A 2.37; F 2.6; T 2.06; V 2.09; Q 2.62; L 2.18
S3: C 2.83; L 3.23; K 3.47; I 3.73; G 1.76; W 2.24
Y6: N 4.27; T 4.41; C 4.51; H 4.48; F 1.84; R 4.24; S 4.63; W 3.06; P 4.14
D19: M 2.08; H 2.32; G 1.77; N 2.37; S 2.87; R 1.65
V21: Y 2.06; K 2.99; S 2.56; P 2.73; A 3.08; N 2.94; R 2.33; W 1.68
F1: E 4.78; P 5.18; N 4.84; S 4.31; I 4.68; C 4.43; G 4.87; K 4.64

Variants of: B2
Test: as above
Details: c terminus: a fixed tail appended

Protein stability index: each site, then its substitutions
A6: R 2.71; F 1.73; G 2.19; V 1.57; M 2.54
M21: R 3.33; Y 2.04; N 2.77; P 2.8; A 2.11; F 2.06; H 3.37
S5: N 2.26; T 2.46; F 1.76; Y 2.17; L 2.12; R 1.77; V 2.22; H 2.29
V11: R 2.43; W 1.34; H 2.73; F 2.09; M 2.11; K 1.85; G 2.56
R12: H 2.53; V 2.16; G 2.59; T 2.09; A 2.18; P 2.74; K 3.12; C 1.98
P24: R 2; E 3.13; F 1.63; D 3.18; L 1.21
T22: C 2.12; F 1.68; P 2.38
R14: G 2.09; L 2.03; V 1.65; P 2.51; N 2.69; W 2.16; H 1.98; E 2.75
E23: R 2.47; P 2.19; F 1.62; Q 1.9
R10: I 1.94; E 2.28; T 2.29; H 2.33; N 2.99; L 1.81
F7: T 3.42; K 3.03; E 3.48; M 2.35; R 2.75; W 1.99
V19: R 2.57; W 1.42; S 2.68; M 1.84; N 3.15; C 2.79; T 2.93
V8: S 2.54; K 2.54; L 1.96; F 1.8; G 2.91; M 2.49; D 3.46; W 1.47
V18: T 2.67; F 1.85; C 2.38; K 2.12; P 2.47
K13: S 2.83; W 2.48; G 1.34; C 1.61; P 2.63; L 2.49; Q 2.2; T 2.35; N 2.24
F16: Y 2.11; H 3.05; I 2.61; A 3.87; S 3.64; G 3.28; Q 4.2; C 2.71; K 3.2; M 2.73
Q1: K 2.17; R 1.71; D 2.21; E 1.91; A 2.29; S 2.12; H 1.85; M 1.81
N4: Q 2.72; Y 1.72; F 2.16; L 1.69; D 3.01; W 1.94
V2: G 2.59; P 2.85; Y 2.3; I 2.52; W 1.94; N 2.75; H 2.49; F 2.47; D 3.15; R 2.6
A3: Q 2.46; C 2.01; V 2.43; E 2.69; G 2.28; H 2.38; K 2.81
Y20: R 3.23; T 2.69; G 3.52; A 2.62
E17: S 2.49; G 2.88; D 2; Y 2.6; P 2.02
G15: F 2.21; W 1.91; P 2.75; E 2.56; N 2.61; C 1.79; A 2.01; S 2.38; T 2.72; I 1.81
E9: D 2.56; C 2.07; H 2.27; Y 2.32; F 2.16; Q 1.72; L 3.24; T 1.76; K 2.26; S 1.63; A 1.36
